Results on three molecules are retold here after US20140343258A1 (Astellas, published 2014).

Test [1] addresses T1, human CTGF (human, UniProt P29279 27-349).
T1 construct: also called human CTGF protein; connective tissue growth factor
T1 sequence: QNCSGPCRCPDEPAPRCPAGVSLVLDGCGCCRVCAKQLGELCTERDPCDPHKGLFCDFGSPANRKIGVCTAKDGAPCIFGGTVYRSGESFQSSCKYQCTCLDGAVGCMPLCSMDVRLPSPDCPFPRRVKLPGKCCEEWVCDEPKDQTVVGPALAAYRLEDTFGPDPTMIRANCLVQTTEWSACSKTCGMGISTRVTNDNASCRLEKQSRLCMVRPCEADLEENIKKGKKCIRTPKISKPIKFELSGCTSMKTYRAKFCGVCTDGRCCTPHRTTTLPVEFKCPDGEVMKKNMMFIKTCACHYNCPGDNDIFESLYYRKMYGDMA
Briefly: ELISA, human CTGF immobilized on the plate, HRP anti-mouse IgG detection. As for the experimental part: The present inventors evaluated the binding specificity of the antibody for CTGF using an ELISA method. 20 μL of PBS solution of human CTGF (1 μg/mL) was added to a Maxisorp 384 plate (Nunc, Inc.), and immobilized by being incubated overnight at 4° C. The next day, the plate was washed once with 100 μL of washing solution (TPBS: 0.05% Tween-20-containing PBS), and then 100 μL of blocking agent (1% BSA-containing PBS) was added thereto and allowed to stand at room temperature for 1 hour. After washing once with 100 μL of TBST washing solution, a series of appropriate dilutions of the purified antibody sample were prepared and added to the plate. After incubation at room temperature for 1 hour, the plate was washed three times with 100 μL of TBST washing solution, and a goat anti-mouse IgG antibody labeled with a horseradish peroxidase (HRP-goat anti-mouse IgG antibody; Zymed Laboratories, Inc.) which was diluted 5000-fold with a 0.1% BSA-containing TBST washing solution (20 μL) was added thereto. […] After adding 40 μL of TMB chromogenic reagent (Sumitomo Bakelite Co., Ltd.) thereto and allowing it to stand at room temperature for 10 minutes, 40 μL of stopping solution (2 mol/L sulfuric acid) was added thereto to stop the reaction, and the absorbance at 450 nm was measured. Each of the antibodies was tested in duplicate, and the EC50 was analyzed by curve fitting.
(In general: An ELISA detects its analyte on a solid surface through an enzyme-linked reagent.)

Test [2] deals with T1, human CTGF. Briefly: ELISA, CTGF immobilized on the plate, HRP anti-human IgG detection. The procedure: (§1) The present inventors evaluated the binding specificity of the antibody for CTGF using an ELISA method. 20 μL of PBS solution of human CTGF (1 μg/mL) was added to a Maxisorp 384 plate (Nunc, Inc.), and immobilized by being incubated overnight at 4° C. The next day, the plate was washed once with 100 μL of washing solution (TPBS: 0.05% Tween-20-containing PBS), and then 100 μL of blocking agent (1% BSA-containing PBS) was added thereto and allowed to stand at room temperature for 1 hour. After washing once with 100 μL of TBST washing solution, a series of appropriate dilutions of the purified antibody sample were prepared and added to the plate. After incubation at room temperature for 1 hour, the plate was washed three times with 100 μL of TBST washing solution, and a goat anti-mouse IgG antibody labeled with a horseradish peroxidase (HRP-goat anti-mouse IgG antibody; Zymed Laboratories, Inc.) which was diluted 5000-fold with a 0.1% BSA-containing TBST washing solution (20 μL) was added thereto. After incubation at room temperature for 1 hour, the plate was washed three times with 100 μL of TBST washing solution. After adding 40 μL of TMB chromogenic reagent (Sumitomo Bakelite Co., Ltd.) thereto and allowing it to stand at room temperature for 10 minutes, 40 μL of stopping solution (2 mol/L sulfuric acid) was added thereto to stop the reaction, and the absorbance at 450 nm was measured. Each of the antibodies was tested in duplicate, and the EC50 was analyzed by curve fitting.
(§2) The present inventors evaluated the binding specificity of fully human 37-45 and fully human 37-45-MH1 prepared in the above Examples to human, mouse, rat and monkey CTGF using an ELISA method. Here, the same method as described in Example 4 was used, but a rabbit anti-human IgG antibody labeled with horseradish peroxidase (HRP-rabbit anti-human IgG antibody; DAKO) which was 5000-fold diluted with a 0.1% BSA-containing TBST washing solution as a secondary antibody. The test on each antibody was carried out in duplicate and EC50 was analyzed by curve fitting.

A further test has as its target T2, mouse CTGF (mouse, UniProt P29268 26-348).
T2 construct: mature
T2 sequence (looked up): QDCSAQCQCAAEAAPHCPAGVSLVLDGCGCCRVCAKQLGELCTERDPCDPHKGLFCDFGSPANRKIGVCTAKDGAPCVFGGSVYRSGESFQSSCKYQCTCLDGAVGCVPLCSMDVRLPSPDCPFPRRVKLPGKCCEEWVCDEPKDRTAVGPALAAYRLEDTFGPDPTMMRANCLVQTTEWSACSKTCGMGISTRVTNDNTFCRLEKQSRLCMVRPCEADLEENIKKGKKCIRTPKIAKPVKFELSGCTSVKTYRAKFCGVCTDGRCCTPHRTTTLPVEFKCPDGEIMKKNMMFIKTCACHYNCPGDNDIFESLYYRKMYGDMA
The description is as above. The procedure: as §1, §2

For another test, the target named is T3, rat CTGF (rat, UniProt Q9R1E9 25-347).
T3 construct: mature
T3 sequence (looked up): T2 sequence (looked up) with H16R, A148V
Described as above. As for the experimental part:
as §1, §2

The next test has as its target T4, monkey CTGF (monkey).
T4 construct: mature
Described as above. The procedure:
as §1, §2

Test [3] has as its target T1, human CTGF. The test is described as follows: SPR, Biacore 2000, comparison of KD with the reference antibody CLN1. An excerpt: (§3) In order to measure the antigen-specific binding activity of fully human 37-45-MH1 in more detail, the present inventors carried out surface plasmon resonance (SPR) analysis. In the present Example, an anti-human CTGF antibody CLN1 (Patent Document 2) was used as a comparative antibody.
(§4) In the SPR analysis, Biacore 2000 (GE Healthcare Japan) was used to carry out analysis. An anti-CTGF antibody was immobilized on the surface of a Sensor Chip CM5 using a Human Antibody Capture Kit and an Amine Coupling Kit (GE Healthcare Japan). Serial dilution of the human CTGF acquired in Example 1 was made by HBS-EP solution (GE Healthcare Japan). 100 μL of the dilution was added to flow path at flow rate 50 μl/min. By this measurement system, the association rate constant (ka), the dissociation rate constant (kd), and the dissociation constant (KD) between the human CTGF protein and the anti-CTGF antibody were calculated using a data analysis software (BIA Evaluation).

In test [4] the target is T1, human CTGF. The test is described as follows: SPR, Biacore 2000, antibody captured on CM5 chip (Human Antibody Capture Kit), human CTGF as analyte.
From the text: as §3, §4
For orientation: Surface plasmon resonance follows binding to a sensor surface in real time, without labels.

Substitutions are numbered along the chain they refer to.

B1: 37-45 (antibody, V domains shown)
VH: QVQLVQSGAEVKKPGASVKVSCKASGYTFTGYYMYWVRQAPGQGLEWMGWINPNSGGTNYSQKFQGRVTMTRDTSISTAYMELSRLRSDDTALYYCARGSKWNYPFDYWGQGTLVTVSS
VL: EIVLTQSPGTLSLSPGERATLSCRASQSVSSSYLAWYQQKPGQAPRLLIYGASRRATGIPDRFSGSGSGTDFTLTISRLEPEDFVVYFCQQYVSTPWTFGQGTKVEIKR
notes: also called 37-45 antibody
B1: a half-maximal effect with human CTGF [1] (EC50) was put at 0.0016 µg/mL.

B2: fully human 37-45 (antibody, human IgG1, kappa, V domains shown)
VH: B1 VH
VL: B1 VL
notes: Human Ig gamma1 and human kappa constant regions, expressed in CHO-K1SV cells; The heavy-chain variable region has an N-glycosylation motif at Asn 58 (Kabat)
For the molecule B2, the EC50 (as a rule, the concentration giving half of the maximal effect) with human CTGF [2] was determined as 0.0132 µg/mL; with mouse CTGF it was 0.0124 µg/mL; in the test with rat CTGF, 0.0131 µg/mL; in the test with monkey CTGF, 0.0125 µg/mL.

B3: fully human 37-45-MH1 (antibody, human IgG1, kappa, V domains shown)
VH: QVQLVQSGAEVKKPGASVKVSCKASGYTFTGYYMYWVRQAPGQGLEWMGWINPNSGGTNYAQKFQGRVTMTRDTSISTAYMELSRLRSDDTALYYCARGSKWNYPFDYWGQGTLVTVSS
VL: B1 VL
notes: It has the same light chain as fully human 37-45; Human IgG1/kappa
In the case of B3, in the test with human CTGF [3], the “fold binding activity against CLN1” value was no less than 12 times. Moreover, the EC50 was found to be 0.0104 µg/mL with human CTGF [2], 0.0092 µg/mL with mouse CTGF, 0.0092 µg/mL with rat CTGF and 0.0086 µg/mL with monkey CTGF. Further, in the test with human CTGF [4], the Kd (usually a measure of binding affinity in units of concentration) worked out at 0.037 nM. Also, the koff (usually a measure of how fast the partners let go of each other) in the test with human CTGF [4] is 0.00016 s⁻¹.
